According to the RNAGym collection of RNA variant scans (doi:10.7554/elife.80360):

B1: HDV Ribozyme (parent)
chain: GGCCGGCAUGGUCCCAGCCUCCUCGCUGGCGCCGGCUGGGCAACAUUCCGAGGGGACCGUCCCCUCGGUAAUGGCGAAUGGGACCCA

Variants of: B1
Assay: self-cleavage, relative activity (ratio to wild type); higher = more cleavage; co-transcriptional

Row | Variant | self-cleavage
1 | GGCCGGCAUGGUCCCAGCCUCCUCGCUGGCGCCGGCUGGGCAACAUUCCGAGGGGACCGUCCCCUCGGUAAUGGCGAAUGAGACGCA | 0.175
2 | GGCCGGCAUGGUCCCAGCCUCCUCGCUGGCGCCGGCUGGGCAACAUUCCGAGGGGACCGUCCCCUCGGUAAUGGCGAAUGGUACCCG | 0.387
3 | GGCCGGCAUGGUCCCAGCCUCCUCGCUGGCGCCGGCUGGGCAACAUUCCGAGGGGACCGUCCCCUCGGUAAUGGCGAAUGGAACCAA | 0.729
4 | GGCCGGCAUGGUCCCAGCCUCCUCGCUGGCGCCGGCUGGGCAACAUUCCGAGGGGACCGUCCCCUCGGUAAUGGCGAAUGGAACCUA | 0.522
5 | GGCCGGCAUGGUCCCAGCCUCCUCGCUGGCGCCGGCUGGGCAACAUUCCGAGGGGACCGUCCCCUCGGUAAUGGCGAAUGCUACCCA | 0.287
6 | GGCCGGCAUGGUCCCAGCCUCCUCGCUGGCGCCGGCUGGGCAACAUUCCGAGGGGACCGUCCCCUCGGUAAUGGCGAAUGGCACACA | 0.147
7 | GGCCGGCAUGGUCCCAGCCUCCUCGCUGGCGCCGGCUGGGCAACAUUCCGAGGGGACCGUCCCCUCGGUAAUGGCGAAUGGCACGCA | 0.119
8 | GGCCGGCAUGGUCCCAGCCUCCUCGCUGGCGCCGGCUGGGCAACAUUCCGAGGGGACCGUCCCCUCGGUAAUGGCGAAUGGCACUCA | 0.18
9 | GGCCGGCAUGGUCCCAGCCUCCUCGCUGGCGCCGGCUGGGCAACAUUCCGAGGGGACCGUCCCCUCGGUAAUGGCGAAUGGGCCCCA | 0.458
10 | GGCCGGCAUGGUCCCAGCCUCCUCGCUGGCGCCGGCUGGGCAACAUUCCGAGGGGACCGUCCCCUCGGUAAUGGCGAAUGGGGCCCA | 0.806
11 | GGCCGGCAUGGUCCCAGCCUCCUCGCUGGCGCCGGCUGGGCAACAUUCCGAGGGGACCGUCCCCUCGGUAAUGGCGAAUGGCAACCA | 0.383
12 | GGCCGGCAUGGUCCCAGCCUCCUCGCUGGCGCCGGCUGGGCAACAUUCCGAGGGGACCGUCCCCUCGGUAAUGGCGAAUGGGGCCCC | 0.906
13 | GGCCGGCAUGGUCCCAGCCUCCUCGCUGGCGCCGGCUGGGCAACAUUCCGAGGGGACCGUCCCCUCGGUAAUGGCGAAUGUAACCCA | 0.277
14 | GGCCGGCAUGGUCCCAGCCUCCUCGCUGGCGCCGGCUGGGCAACAUUCCGAGGGGACCGUCCCCUCGGUAAUGGCGAAUGUUACCCA | 0.211
15 | GGCCGGCAUGGUCCCAGCCUCCUCGCUGGCGCCGGCUGGGCAACAUUCCGAGGGGACCGUCCCCUCGGUAAUGGCGAAUGCGACGCA | 0.128
16 | GGCCGGCAUGGUCCCAGCCUCCUCGCUGGCGCCGGCUGGGCAACAUUCCGAGGGGACCGUCCCCUCGGUAAUGGCGAAUGCGACACA | 0.213
17 | GGCCGGCAUGGUCCCAGCCUCCUCGCUGGCGCCGGCUGGGCAACAUUCCGAGGGGACCGUCCCCUCGGUAAUGGCGAAUGUGAUCCA | 0.228
18 | GGCCGGCAUGGUCCCAGCCUCCUCGCUGGCGCCGGCUGGGCAACAUUCCGAGGGGACCGUCCCCUCGGUAAUGGCGAAUGUGAGCCA | 0.0923
19 | GGCCGGCAUGGUCCCAGCCUCCUCGCUGGCGCCGGCUGGGCAACAUUCCGAGGGGACCGUCCCCUCGGUAAUGGCGAAUGGAACCCU | 0.443
20 | GGCCGGCAUGGUCCCAGCCUCCUCGCUGGCGCCGGCUGGGCAACAUUCCGAGGGGACCGUCCCCUCGGUAAUGGCGAAUGGAACCCG | 0.342
21 | GGCCGGCAUGGUCCCAGCCUCCUCGCUGGCGCCGGCUGGGCAACAUUCCGAGGGGACCGUCCCCUCGGUAAUGGCGAAUGGAACCCC | 0.583
22 | GGCCGGCAUGGUCCCAGCCUCCUCGCUGGCGCCGGCUGGGCAACAUUCCGAGGGGACCGUCCCCUCGGUAAUGGCGAAUGGGGACCA | 1.02

Row | Variant | self-cleavage
23 | GGCCGGCAUGGUCCCAGCCUCCUCGCUGGCGCCGGCUGGGCAACAUUCCGAGGGGACCGUCCCCUCGGUAAUGGCGAAUGCGACCCU | 0.265
24 | GGCCGGCAUGGUCCCAGCCUCCUCGCUGGCGCCGGCUGGGCAACAUUCCGAGGGGACCGUCCCCUCGGUAAUGGCGAAUGCGACCCG | 0.306
25 | GGCCGGCAUGGUCCCAGCCUCCUCGCUGGCGCCGGCUGGGCAACAUUCCGAGGGGACCGUCCCCUCGGUAAUGGCGAAUGCGACCCC | 0.269
26 | GGCCGGCAUGGUCCCAGCCUCCUCGCUGGCGCCGGCUGGGCAACAUUCCGAGGGGACCGUCCCCUCGGUAAUGGCGAAUGGGCCCCG | 0.302
27 | GGCCGGCAUGGUCCCAGCCUCCUCGCUGGCGCCGGCUGGGCAACAUUCCGAGGGGACCGUCCCCUCGGUAAUGGCGAAUGGAAACCA | 0.399
28 | GGCCGGCAUGGUCCCAGCCUCCUCGCUGGCGCCGGCUGGGCAACAUUCCGAGGGGACCGUCCCCUCGGUAAUGGCGAAUGGCACCGA | 0.194
29 | GGCCGGCAUGGUCCCAGCCUCCUCGCUGGCGCCGGCUGGGCAACAUUCCGAGGGGACCGUCCCCUCGGUAAUGGCGAAUGCGACCAA | 0.554
30 | GGCCGGCAUGGUCCCAGCCUCCUCGCUGGCGCCGGCUGGGCAACAUUCCGAGGGGACCGUCCCCUCGGUAAUGGCGAAUGCGACCUA | 0.302
31 | GGCCGGCAUGGUCCCAGCCUCCUCGCUGGCGCCGGCUGGGCAACAUUCCGAGGGGACCGUCCCCUCGGUAAUGGCGAAUGAGAACCA | 0.339
32 | GGCCGGCAUGGUCCCAGCCUCCUCGCUGGCGCCGGCUGGGCAACAUUCCGAGGGGACCGUCCCCUCGGUAAUGGCGAAUGGUAACCA | 0.261
33 | GGCCGGCAUGGUCCCAGCCUCCUCGCUGGCGCCGGCUGGGCAACAUUCCGAGGGGACCGUCCCCUCGGUAAUGGCGAAUGGUAUCCA | 0.133
34 | GGCCGGCAUGGUCCCAGCCUCCUCGCUGGCGCCGGCUGGGCAACAUUCCGAGGGGACCGUCCCCUCGGUAAUGGCGAAUGGAACGCA | 0.339
35 | GGCCGGCAUGGUCCCAGCCUCCUCGCUGGCGCCGGCUGGGCAACAUUCCGAGGGGACCGUCCCCUCGGUAAUGGCGAAUGGUACCAA | 0.793
36 | GGCCGGCAUGGUCCCAGCCUCCUCGCUGGCGCCGGCUGGGCAACAUUCCGAGGGGACCGUCCCCUCGGUAAUGGCGAAUGGCCCCCA | 0.284
37 | GGCCGGCAUGGUCCCAGCCUCCUCGCUGGCGCCGGCUGGGCAACAUUCCGAGGGGACCGUCCCCUCGGUAAUGGCGAAUGGCUCCCA | 0.237
38 | GGCCGGCAUGGUCCCAGCCUCCUCGCUGGCGCCGGCUGGGCAACAUUCCGAGGGGACCGUCCCCUCGGUAAUGGCGAAUGGUCCCCA | 0.18
39 | GGCCGGCAUGGUCCCAGCCUCCUCGCUGGCGCCGGCUGGGCAACAUUCCGAGGGGACCGUCCCCUCGGUAAUGGCGAAUGACACCCA | 0.163
40 | GGCCGGCAUGGUCCCAGCCUCCUCGCUGGCGCCGGCUGGGCAACAUUCCGAGGGGACCGUCCCCUCGGUAAUGGCGAAUGAUACCCA | 0.225
41 | GGCCGGCAUGGUCCCAGCCUCCUCGCUGGCGCCGGCUGGGCAACAUUCCGAGGGGACCGUCCCCUCGGUAAUGGCGAAUGAAACCCA | 0.201
42 | GGCCGGCAUGGUCCCAGCCUCCUCGCUGGCGCCGGCUGGGCAACAUUCCGAGGGGACCGUCCCCUCGGUAAUGGCGAAUGGGCCGCA | 0.175
43 | GGCCGGCAUGGUCCCAGCCUCCUCGCUGGCGCCGGCUGGGCAACAUUCCGAGGGGACCGUCCCCUCGGUAAUGGCGAAUGGGCCACA | 0.534
44 | GGCCGGCAUGGUCCCAGCCUCCUCGCUGGCGCCGGCUGGGCAACAUUCCGAGGGGACCGUCCCCUCGGUAAUGGCGAAUGGGCCUCA | 0.268

Row | Variant | self-cleavage
45 | GGCCGGCAUGGUCCCAGCCUCCUCGCUGGCGCCGGCUGGGCAACAUUCCGAGGGGACCGUCCCCUCGGUAAUGGCGAAUGUGCCCCA | 0.0821
46 | GGCCGGCAUGGUCCCAGCCUCCUCGCUGGCGCCGGCUGGGCAACAUUCCGAGGGGACCGUCCCCUCGGUAAUGGCGAAUGGUACUCA | 0.451
47 | GGCCGGCAUGGUCCCAGCCUCCUCGCUGGCGCCGGCUGGGCAACAUUCCGAGGGGACCGUCCCCUCGGUAAUGGCGAAUGGUACACA | 0.256
48 | GGCCGGCAUGGUCCCAGCCUCCUCGCUGGCGCCGGCUGGGCAACAUUCCGAGGGGACCGUCCCCUCGGUAAUGGCGAAUGGUACGCA | 0.446
49 | GGCCGGCAUGGUCCCAGCCUCCUCGCUGGCGCCGGCUGGGCAACAUUCCGAGGGGACCGUCCCCUCGGUAAUGGCGAAUGGGCCCUA | 0.376
50 | GGCCGGCAUGGUCCCAGCCUCCUCGCUGGCGCCGGCUGGGCAACAUUCCGAGGGGACCGUCCCCUCGGUAAUGGCGAAUGGGCCCGA | 0.254
51 | GGCCGGCAUGGUCCCAGCCUCCUCGCUGGCGCCGGCUGGGCAACAUUCCGAGGGGACCGUCCCCUCGGUAAUGGCGAAUGCGAGCCA | 0.256
52 | GGCCGGCAUGGUCCCAGCCUCCUCGCUGGCGCCGGCUGGGCAACAUUCCGAGGGGACCGUCCCCUCGGUAAUGGCGAAUGCGAUCCA | 0.141
53 | GGCCGGCAUGGUCCCAGCCUCCUCGCUGGCGCCGGCUGGGCAACAUUCCGAGGGGACCGUCCCCUCGGUAAUGGCGAAUGUGACCCC | 0.444
54 | GGCCGGCAUGGUCCCAGCCUCCUCGCUGGCGCCGGCUGGGCAACAUUCCGAGGGGACCGUCCCCUCGGUAAUGGCGAAUGUGACCCG | 0.291
55 | GGCCGGCAUGGUCCCAGCCUCCUCGCUGGCGCCGGCUGGGCAACAUUCCGAGGGGACCGUCCCCUCGGUAAUGGCGAAUGAGACCUA | 0.546
56 | GGCCGGCAUGGUCCCAGCCUCCUCGCUGGCGCCGGCUGGGCAACAUUCCGAGGGGACCGUCCCCUCGGUAAUGGCGAAUGAGACCGA | 0.45
57 | GGCCGGCAUGGUCCCAGCCUCCUCGCUGGCGCCGGCUGGGCAACAUUCCGAGGGGACCGUCCCCUCGGUAAUGGCGAAUGUGACUCA | 0.31
58 | GGCCGGCAUGGUCCCAGCCUCCUCGCUGGCGCCGGCUGGGCAACAUUCCGAGGGGACCGUCCCCUCGGUAAUGGCGAAUGUGACGCA | 0.212
59 | GGCCGGCAUGGUCCCAGCCUCCUCGCUGGCGCCGGCUGGGCAACAUUCCGAGGGGACCGUCCCCUCGGUAAUGGCGAAUGUGACACA | 0.389
60 | GGCCGGCAUGGUCCCAGCCUCCUCGCUGGCGCCGGCUGGGCAACAUUCCGAGGGGACCGUCCCCUCGGUAAUGGCGAAUGGCACCCC | 0.28
61 | GGCCGGCAUGGUCCCAGCCUCCUCGCUGGCGCCGGCUGGGCAACAUUCCGAGGGGACCGUCCCCUCGGUAAUGGCGAAUGGCACCCG | 0.185
62 | GGCCGGCAUGGUCCCAGCCUCCUCGCUGGCGCCGGCUGGGCAACAUUCCGAGGGGACCGUCCCCUCGGUAAUGGCGAAUGUGACCGA | 0.27
63 | GGCCGGCAUGGUCCCAGCCUCCUCGCUGGCGCCGGCUGGGCAACAUUCCGAGGGGACCGUCCCCUCGGUAAUGGCGAAUGUGACCUA | 0.767
64 | GGCCGGCAUGGUCCCAGCCUCCUCGCUGGCGCCGGCUGGGCAACAUUCCGAGGGGACCGUCCCCUCGGUAAUGGCGAAUGGAUCCCA | 0.376
